{
  "source": "patent US20140221283A1",
  "about": "(INDIANA UNIVERSITY RESEARCH AND TECHNOLOGY, published 2014)",
  "note": "*1 amine or outer side, *2 acyl side, *3 side chain or, on linkers, in order; H or OH if unused. Where no end group is shown, it is not given here. Side-chain parts run from the residue outwards. [ ]: non-standard residue; d: D form. The star is where a group is joined. γGlu = O=C(O)[C@H](CCC(=O)[*:2])N[*:1]; Palmitoyl = CCCCCCCCCCCCCCCC(=O)*; Met(O) = CS(=O)CC[C@H](N)C(=O)O; Aib = CC(C)(N)C(=O)O",
  "data": [
    {"target": "T1, GIP receptor (assay by the procedure of Example 3)", "T1 sequence (P48546 whole entry, species assumed, looked up)": "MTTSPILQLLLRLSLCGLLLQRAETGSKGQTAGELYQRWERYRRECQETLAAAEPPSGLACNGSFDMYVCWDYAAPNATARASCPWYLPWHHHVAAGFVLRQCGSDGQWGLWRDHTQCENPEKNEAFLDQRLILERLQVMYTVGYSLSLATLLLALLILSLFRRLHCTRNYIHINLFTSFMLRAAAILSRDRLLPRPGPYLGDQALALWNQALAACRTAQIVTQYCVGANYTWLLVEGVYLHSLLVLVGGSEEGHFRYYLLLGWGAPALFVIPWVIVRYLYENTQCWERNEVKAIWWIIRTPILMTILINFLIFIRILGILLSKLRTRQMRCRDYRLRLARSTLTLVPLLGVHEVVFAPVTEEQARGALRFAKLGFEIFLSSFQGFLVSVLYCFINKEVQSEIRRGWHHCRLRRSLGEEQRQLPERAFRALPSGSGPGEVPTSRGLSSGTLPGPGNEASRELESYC", "assay": "cell-based or functional assay", "units": {"EC50 (nM) at GIP receptor (procedure of Example 3)": "nM"}, "values": [
      {"binder": "H[Aib]QGTFTSDK([γGlu-γGlu-Palmitoyl])SKYLD[Aib]RAAQDFVQWLMDTK[γGlu]-NH2", "note": "[peptide of SEQ ID NO: 12]", "EC50 (nM) at GIP receptor (procedure of Example 3)": 12.8},
      {"binder": "H[Aib]QGTFTSDK([γGlu-γGlu-Palmitoyl])SKYLD[Aib]RAAQDFVQWL[Met(O)]DTKQ-OH (not fully specified; printed as HaibQGTFTSDK(γGlu-γGlu-C16)SKYLDaibRAAQDFVQWLMornDTKQ-acid)", "note": "[peptide of SEQ ID NO: 15]", "EC50 (nM) at GIP receptor (procedure of Example 3)": 1.9},
      {"binder": "H[Aib]QGTFTSDK([γGlu-γGlu-Palmitoyl])SKYLD[Aib]RAAQDFVQWLLDTKQ-OH (N-terminus assumed; SMILES CCCCCCCCCCCCCCCC(=O)N[C@@H](CCC(=O)N[C@@H](CCC(=O)NCCCC[C@H](NC(=O)[C@H](CC(=O)O)NC(=O)[C@H](CO)NC(=O)[C@@H](NC(=O)[C@H](Cc1ccccc1)NC(=O)[C@@H](NC(=O)CNC(=O)[C@H](CCC(N)=O)NC(=O)C(C)(C)NC(=O)[C@@H](N)Cc1c[nH]cn1)[C@@H](C)O)[C@@H](C)O)C(=O)N[C@@H](CO)C(=O)N[C@@H](CCCCN)C(=O)N[C@@H](Cc1ccc(O)cc1)C(=O)N[C@@H](CC(C)C)C(=O)N[C@@H](CC(=O)O)C(=O)NC(C)(C)C(=O)N[C@@H](CCCNC(=N)N)C(=O)N[C@@H](C)C(=O)N[C@@H](C)C(=O)N[C@@H](CCC(N)=O)C(=O)N[C@@H](CC(=O)O)C(=O)N[C@@H](Cc1ccccc1)C(=O)N[C@H](C(=O)N[C@@H](CCC(N)=O)C(=O)N[C@@H](Cc1c[nH]c2ccccc12)C(=O)N[C@@H](CC(C)C)C(=O)N[C@@H](CC(C)C)C(=O)N[C@@H](CC(=O)O)C(=O)N[C@H](C(=O)N[C@@H](CCCCN)C(=O)N[C@@H](CCC(N)=O)C(=O)O)[C@@H](C)O)C(C)C)C(=O)O)C(=O)O)", "note": "[peptide of SEQ ID NO: 16]", "EC50 (nM) at GIP receptor (procedure of Example 3)": 1.04},
      {"binder": "H[Aib]QGTFTSDYSKYLDERRA[Aib]EFVC(40K‑TE PEG)WLLDTK[γGlu]-NH2", "note": "[peptide of SEQ ID NO: 13]", "EC50 (nM) at GIP receptor (procedure of Example 3)": 140},
      {"binder": "HSQGTFTSDKSKYLDERAAQDFVQWLLDTKX (lower-case 's' at position 2 (taken as D-Ser; the table does not explain it); Lys at position 10 acylated as K(γGlu-C16); C-terminal γGlu; C-terminal amide)", "note": "[peptide of SEQ ID NO: 14]", "EC50 (nM) at GIP receptor (procedure of Example 3)": 976}
    ]}
  ]
}
